Source: CN114685674A

Biological target: VEGF165 (UniProt P15692)
Experiment: cell-based or functional assay

UniProt P15692, sequence (P15692 other isoform, or with tags, fused parts or gaps): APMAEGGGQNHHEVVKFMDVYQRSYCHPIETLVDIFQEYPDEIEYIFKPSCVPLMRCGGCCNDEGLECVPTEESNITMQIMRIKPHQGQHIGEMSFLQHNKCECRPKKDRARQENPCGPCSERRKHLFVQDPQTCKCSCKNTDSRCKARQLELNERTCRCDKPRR

HUVEC细胞增殖抑制 EC50: 0.221 nM
Substance: Conbercept(康柏西普) (Fc fusion)
